# No end group written: not given here.
# What was measured:
# [1] = molecular target: human programmed death-ligand 1 (PD-L1) (human) (UniProt Q9NZQ7); test: IHC on FFPE tissue sections of 119 NSCLC cases
# [2] = molecular target: T1, peptide fragment of the cytoplasmic region (amino acid residues 279-290) of human PD-L1 (human, not fully specified); test: ELISA screen on the PD-L1 peptide antigen
# T1 construct: For immunization, Cys-Gly was appended to the N-terminus and the peptide was conjugated to KLH; also called PD-L1 antigen
# T1 peptide: SKKQSDTHLEET
# Chain of human programmed death-ligand 1 (PD-L1) (human) (Q9NZQ7 19-290 limits assumed): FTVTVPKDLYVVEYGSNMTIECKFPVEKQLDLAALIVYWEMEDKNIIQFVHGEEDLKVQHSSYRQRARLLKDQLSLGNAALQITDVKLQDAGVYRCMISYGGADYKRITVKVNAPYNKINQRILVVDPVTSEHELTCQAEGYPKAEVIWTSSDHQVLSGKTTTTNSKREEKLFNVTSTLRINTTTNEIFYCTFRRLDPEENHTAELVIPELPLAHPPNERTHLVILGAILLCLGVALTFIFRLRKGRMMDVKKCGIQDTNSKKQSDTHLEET
Molecule,mean H score (extent of membrane immunoreactivity) (H score (range 0 to 300)) [1],binding result [2]
anti-PD-L1 antibody E1L3N (Cell Signaling Technology),56,
"anti-PD-L1 antibody SP142 (antibody, V domains shown, the constant regions are not; also called rabbit anti-human PD-L1 (SP142) monoclonal antibody) VH: QSLEESGGRLVKPDETLTITCTVSGIDLSSNGLTWVRQAPGEGLEWIGTINKDASAYYASWAKGRLTISKPSSTKVDLKITSPTTEDTATYFCGRIAFKTGTSIWGPGTLVTVSS VL: AIVMTQTPSPVSAAVGGTVTINCQASESVYSNNYLSWFQQKPGQPPKLLIYLASTLASGVPSRFKGSGSGTQFTLTISGVQCDDAATYYCIGGKSSSTDGNAFGGGTEVVVR",,binds
